Measured values: PMC7712654

Target: α-CT coiled-coil domain fused with HIS tag (α-CT-His), fluorescently labeled (Arabidopsis thaliana)
Assay: MST
Conditions: domain or fragment

Sequence of α-CT coiled-coil domain fused with HIS tag (α-CT-His), fluorescently labeled (Arabidopsis thaliana) (Q9LD43 420-769): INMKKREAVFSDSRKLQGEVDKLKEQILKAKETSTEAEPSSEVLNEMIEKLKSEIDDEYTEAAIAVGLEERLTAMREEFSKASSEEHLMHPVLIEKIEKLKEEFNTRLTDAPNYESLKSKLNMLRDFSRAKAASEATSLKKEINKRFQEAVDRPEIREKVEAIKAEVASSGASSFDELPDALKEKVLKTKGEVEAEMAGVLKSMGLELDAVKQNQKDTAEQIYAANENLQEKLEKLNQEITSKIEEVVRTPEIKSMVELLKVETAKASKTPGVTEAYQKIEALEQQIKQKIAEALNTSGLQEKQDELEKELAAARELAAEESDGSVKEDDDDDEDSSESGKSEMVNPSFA

Kd: 1400 nM
Substance: coiled-coil domain of CTI2, GST tag removed by thrombin
